Results published in patent US20180312587A1 (ADURO BIOTECH HOLDINGS EUROPE B V, published 2018).

What was measured:
[1] = molecular target: T1, human SIRPγ (human, UniProt Q9P1W8 29-387); experiment: CELISA, CHO-K1 transfectants; extrapolated
T1 construct: on transfected CHO-K1 cells; also called hSIRPγ
Procedure: Binding of the humanized antibodies to hSIRPα was studied in CELISA format. Binding of the hSIRPα antibodies to human SIRPαV1, SIRPαV2, hSIRPβ1, and hSIRPγ was confirmed using CHO-K1 cells that had been transiently transfected with cDNA encoding the full length open reading frame of each of these respective targets subcloned into the pCI-neo vector. CHO-K1.hSIRPαV1, CHO-K1.hSIRPαV2, CHO-K1.hSIRPβ1, and CHO-K1.hSIRPγ cells were seeded in culture medium (DMEM-F12 (Gibco) supplemented with 5% New Born Calf Serum (BioWest) and Pen/Strep (Gibco)) in 96-well flat-bottom tissue culture plates and incubated at 37° C., 5% CO₂ and 95% humidity until cell layers were confluent. Subsequently, culture medium was removed and cells were incubated for 1 hour at 37° C., 5% CO₂ and 95% humidity with purified hSIRPα antibodies (10 μg/mL and dilutions thereof). Next, cells were washed with PBS-T and incubated for 1 hour at 37° C., 5% CO₂ and 95% humidity with goat-anti-human IgG-HRP conjugate (Jackson Immuno Research) or goat-anti-mouse IgG-HRP (Southern Biotech). Subsequently, cells were washed three times with PBS-T and anti-hSIRPα immunoreactivity was visualized with TMB Stabilized Chromogen (Invitrogen). Reactions were stopped with 0.5 M H₂SO₄ and absorbances were read at 450 and 610 nm. […] In Table 13 the EC50 values of the humanized hSIRPα antibodies are depicted.
Table 13: Binding of humanized and parental hSIRPα.50A antibodies to CHO-K1.hSIRPαV1, CHO-K1.hSIRPαV2, CHO-K1.hSIRPβ1, and CHO-K1.hSIRPγ cells.

[2] = molecular target: T2, hSIRP-VγC1βC2β (human, UniProt O00241 30-398); experiment: CELISA, CHO-K1 transfectants, domain exchange study
T2 chain: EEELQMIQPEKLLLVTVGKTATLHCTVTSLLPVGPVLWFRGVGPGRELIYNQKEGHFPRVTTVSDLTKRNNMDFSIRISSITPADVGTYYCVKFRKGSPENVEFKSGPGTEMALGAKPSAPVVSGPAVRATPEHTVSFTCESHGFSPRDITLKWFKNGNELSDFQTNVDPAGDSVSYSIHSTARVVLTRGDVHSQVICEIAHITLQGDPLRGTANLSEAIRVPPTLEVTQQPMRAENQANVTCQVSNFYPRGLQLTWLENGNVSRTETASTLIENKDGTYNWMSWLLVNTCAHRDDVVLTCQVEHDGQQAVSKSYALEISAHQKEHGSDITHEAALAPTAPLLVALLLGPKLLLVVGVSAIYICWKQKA
Text: Based on the fold of SIRPα/β1/γ, the extracellular region can be subdivided into three separate domains: the Ig-like (immunoglobulin-like) V-type (IgV), Ig-like C1-type (IgC1), and Ig-like C2-type (IgC2) domain. The IgV domain is also known as the ligand-binding N-terminal domain of SIRPα and SIRPγ (which binds to CD47). The human SIRPβ1/γ mutants were designed based on the full length hSIRPβ1 sequence (SEQ ID NO: 38) and each individual Ig-like domain was substituted for the equivalent domain of human SIRPγ (SEQ ID NO: 40). […] Binding of hSIRPα.40A to the exchange mutants was tested using CELISA. To this end, CHO-K1 cells were transiently transfected, using Lipofectamine 2000, with the pCI-neo vectors encoding hSIRPαV1, hSIRPαV2, hSIRPβ1, hSIRP-VγC1βC2β, hSIRP-VβC1γC2β, and hSIRP-VβC1βC2γ, respectively. The transfected cells were cultured at 37° C., 5% CO₂ and 95% humidity in medium (DMEM-F12 (Gibco) with 5% New Born Calf serum (Biowest) and Pen/Strep (Gibco)) until confluent. Subsequently, cells were trypsinized and seeded in 96-well flat-bottom tissue culture plates and cultured at 37° C., 5% CO₂ and 95% humidity in culture medium until confluent. Then, culture medium was removed and cells were incubated for 1 hour at 37° C., 5% CO₂ and 95% humidity with hSIRPα.40A, hSIRPα.50A, and anti-hSIRPα clone SE5A5 antibodies. Next, cells were washed with PBS-T and incubated for 1 hour at 37° C., 5% CO₂ and 95% humidity with goat-anti-mouse IgG-HRP conjugate (Southern Biotech). After that, cells were washed three times with PBS-T and anti-hSIRPα immunoreactivity was visualized with TMB Stabilized Chromogen (Invitrogen). Reactions were stopped with 0.5 M H₂SO₄ and absorbances were read at 450 and 610 nm.

[3] = molecular target: T3, hSIRPαV1(P74A) (human, UniProt P78324 31-504); experiment: CELISA, CHO-K1 transfectants
T3 construct: also called P74A variant of hSIRPαV1
Procedure: (§1) Reactivity was confirmed using CHO-K1 cells (ATCC CCL-61) expressing a cDNA encoding the full length open reading frame of hSIRPαV1, hSIRPαV1(P74A), hSIRPαV2, and hSIRPβ1 subcloned into the pCI-neo vector (Promega, Madison, Wis.). CHO-K1.hSIRPαV1, CHO-K1.hSIRPαV1(P74A), CHO-K1.hSIRPαV2, and CHO-K1.hSIRPβ1 cells were seeded in culture medium (DMEM-F12 (Gibco) supplemented with 5% New Born Calf Serum (BioWest) and Pen/Strep (Gibco)) in 96-well flat-bottom tissue culture plates and incubated at 37° C., 5% CO₂ and 95% humidity for 24 hours. Subsequently, culture medium was removed and cells were incubated for 1 hour at 37° C., 5% CO₂ and 95% humidity with purified hSIRPα antibodies (used at 10 μg/mL and dilutions thereof). Next, cells were washed with PBS-T and incubated for 1 hour at 37° C., 5% CO₂ and 95% humidity with goat-anti-mouse IgG-HRP (Southern Biotech). Subsequently, cells were washed three times with PBS-T and immunoreactivity against hSIRPαV1, hSIRPαV1(P74A), hSIRPαV2, and hSIRPβ1 was visualized with TMB Stabilized Chromogen (Invitrogen). Reactions were stopped with 0.5 M H₂SO₄ and absorbances were read at 450 and 610 nm.

[4] = molecular target: T4, human SIRPβ1 (human, UniProt O00241 30-398); experiment: CELISA, CHO-K1 transfectants
T4 construct: also called hSIRPβ1
Procedure: as §1

T4 sequence (O00241 30-398 limits assumed): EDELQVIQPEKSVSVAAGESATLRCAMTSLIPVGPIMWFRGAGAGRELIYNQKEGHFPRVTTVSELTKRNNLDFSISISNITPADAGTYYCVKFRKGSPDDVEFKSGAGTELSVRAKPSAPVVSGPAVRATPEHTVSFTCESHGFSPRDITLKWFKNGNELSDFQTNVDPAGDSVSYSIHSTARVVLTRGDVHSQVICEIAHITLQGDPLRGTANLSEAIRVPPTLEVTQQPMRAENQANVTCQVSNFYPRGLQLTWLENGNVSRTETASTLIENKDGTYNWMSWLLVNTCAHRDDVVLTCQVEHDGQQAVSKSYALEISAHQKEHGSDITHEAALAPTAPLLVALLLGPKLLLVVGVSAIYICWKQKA
T1 sequence (Q9P1W8 29-387 limits assumed): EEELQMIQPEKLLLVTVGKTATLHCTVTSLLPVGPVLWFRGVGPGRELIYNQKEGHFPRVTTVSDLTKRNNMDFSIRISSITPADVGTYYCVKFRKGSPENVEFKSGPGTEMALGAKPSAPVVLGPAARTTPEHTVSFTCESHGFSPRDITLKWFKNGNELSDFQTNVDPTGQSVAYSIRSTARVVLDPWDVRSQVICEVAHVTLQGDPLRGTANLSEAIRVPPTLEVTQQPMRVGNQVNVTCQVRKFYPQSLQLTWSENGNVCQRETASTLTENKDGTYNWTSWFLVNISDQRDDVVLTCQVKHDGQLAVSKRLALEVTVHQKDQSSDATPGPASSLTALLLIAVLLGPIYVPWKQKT

B1: hSIRPα.50A (antibody, V domains shown)
VH: QVQLQQSGPELVKPGASVRISCKASGFTFTNYYIHWVKQRPGQGLEWIGWIYPGNVNTKYNEKFKAKATLTADKSSTTAYMQLSSLASEDSAVYFCARPTIIATDFDVWGAGTTVTVSS
VL: DIVMTQSHKFMSTSVGDRVNITCKASQGVGTAVGWYQQKPGQSPRLLIYWASTRHTGVPDRFTGSGSGTDFSLAISNVQSEDLADYFCQQYSTYPFTFGGGTNLEIK
notes: light chain constant domain not tied; also called mouse hSIRPα.50A; hSIRPα.50A.mIgG1
- EC50 [1]: 1.25 nM
- EC50 [2]: 2.52 nM

B2: KWAR23 (antibody, V domains shown)
VH: EVQLQQSGAELVKPGASVKLSCTASGFNIKDYYIHWVQQRTEQGLEWIGRIDPEDGETKYAPKFQDKATITADTSSNTAYLHLSSLTSEDTAVYYCARWGAYWGQGTLVTVSS
VL: QIVLTQSPAIMSASPGEKVTLTCSASSSVSSSYLYWYQQKPGSSPKLWIYSTSNLASGVPARFSGSGSGTSYSLTISSMEAEDAASYFCHQWSSYPRTFGAGTKLELK
- EC50 [3]: 0.049 nM
- EC50 [4]: 0.033 nM
